Results reported in patent US20240294890, “SYSTEMS, METHODS, AND COMPOSITIONS FOR RNA-GUIDED RNA-TARGETING CRISPR EFFECTORS” (MASSACHUSETTS INSTITUTE OF TECHNOLOGY, published 2024).

Target: T1, DisCas7-11 (Desulfonema ishimotonii)
T1 chain: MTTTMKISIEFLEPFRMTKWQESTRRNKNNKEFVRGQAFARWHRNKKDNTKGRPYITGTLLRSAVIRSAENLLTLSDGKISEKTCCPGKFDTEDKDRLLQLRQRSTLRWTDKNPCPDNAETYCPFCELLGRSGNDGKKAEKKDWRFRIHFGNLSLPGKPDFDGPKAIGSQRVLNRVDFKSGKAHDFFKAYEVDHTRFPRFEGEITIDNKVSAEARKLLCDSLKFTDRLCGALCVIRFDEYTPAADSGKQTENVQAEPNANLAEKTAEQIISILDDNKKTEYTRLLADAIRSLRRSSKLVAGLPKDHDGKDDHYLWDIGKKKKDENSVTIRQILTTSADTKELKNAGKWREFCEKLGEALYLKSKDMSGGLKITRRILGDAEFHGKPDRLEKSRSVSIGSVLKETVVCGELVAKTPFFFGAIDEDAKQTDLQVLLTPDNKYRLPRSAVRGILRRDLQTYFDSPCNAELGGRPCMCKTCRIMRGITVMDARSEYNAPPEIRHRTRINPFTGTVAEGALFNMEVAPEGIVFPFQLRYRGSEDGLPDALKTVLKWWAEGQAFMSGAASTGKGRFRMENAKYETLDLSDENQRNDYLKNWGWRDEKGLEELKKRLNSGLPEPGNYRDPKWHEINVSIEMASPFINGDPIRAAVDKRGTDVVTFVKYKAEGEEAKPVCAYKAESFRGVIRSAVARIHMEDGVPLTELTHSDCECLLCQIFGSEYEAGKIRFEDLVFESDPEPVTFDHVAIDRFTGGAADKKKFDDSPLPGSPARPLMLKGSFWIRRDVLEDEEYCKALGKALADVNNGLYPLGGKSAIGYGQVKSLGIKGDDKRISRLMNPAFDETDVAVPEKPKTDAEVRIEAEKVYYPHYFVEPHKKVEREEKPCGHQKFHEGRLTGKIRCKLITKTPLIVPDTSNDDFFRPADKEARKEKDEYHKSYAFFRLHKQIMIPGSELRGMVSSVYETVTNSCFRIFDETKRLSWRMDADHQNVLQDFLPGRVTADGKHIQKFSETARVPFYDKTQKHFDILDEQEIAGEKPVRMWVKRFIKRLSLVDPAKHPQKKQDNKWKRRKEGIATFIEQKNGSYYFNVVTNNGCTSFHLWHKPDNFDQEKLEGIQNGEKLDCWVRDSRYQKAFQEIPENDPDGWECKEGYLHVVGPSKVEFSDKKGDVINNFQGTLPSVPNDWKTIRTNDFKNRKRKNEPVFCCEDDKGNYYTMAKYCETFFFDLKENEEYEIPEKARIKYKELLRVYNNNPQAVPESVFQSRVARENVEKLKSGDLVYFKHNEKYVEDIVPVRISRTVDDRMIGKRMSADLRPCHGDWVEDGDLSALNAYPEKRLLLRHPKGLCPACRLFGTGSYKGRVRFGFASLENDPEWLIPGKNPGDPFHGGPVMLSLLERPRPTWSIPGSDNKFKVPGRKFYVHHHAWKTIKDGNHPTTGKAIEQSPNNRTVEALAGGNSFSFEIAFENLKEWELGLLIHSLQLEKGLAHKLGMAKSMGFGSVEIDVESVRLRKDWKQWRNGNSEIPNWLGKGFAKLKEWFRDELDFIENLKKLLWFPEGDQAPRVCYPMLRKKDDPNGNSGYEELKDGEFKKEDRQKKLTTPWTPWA
Experiment: EMSA; target binding crRNA-dependent; non-targeting control
Conditions: tags: Twin-Strep-SUMO tag cleaved off during purification; label: Cy5.5 body label
Protocol: Electrophoretic mobility shift assays (EMSA) for crRNA-target interactions and quantification of EMSA intensities were performed (FIGS. 17A-F). The EMSA assays for targeting crRNA in the absence of DisCas7-11 show minimal binding of the cRNA and shift of the labeled target).

B1: DisCas7-11 non-targeting crRNA ; MS2 target 153 nt (ssRNA ; ssRNA)
RNA 1: GGUUGGAAAGCCGGUUUUCUUUGAUGUCACGGAACCGCCAAUAUAACAAUACAGGUAUUAUAGUUG
RNA 2: GGGGCAAACUCCGGCAUCUACUAAUAGACGCCGGCCAUUCAAACAUGAGGAUUACCCAUGUCGAAGACAACAAAGAAGUUCAACUCUUUAUGUAUUGAUCUUCCUCGCGAUCUUUCUCUCGAAAUUUACCAAUCAAUUGCUUCUGUCGCUACU
binding result: no binding
